Laboratory results as given in patent EP4671282A1 (Jiangsu Hengrui Pharmaceuticals Co., Ltd., dated 2025).
Like-named read-outs stand apart in the source and are kept apart here.

T1: human IL-23 protein (ACROBiosystems, ILB-H52W5) (human, UniProt Q9NPF7 20-189; P29460 23-328)
T1 sequence (looked up) 1: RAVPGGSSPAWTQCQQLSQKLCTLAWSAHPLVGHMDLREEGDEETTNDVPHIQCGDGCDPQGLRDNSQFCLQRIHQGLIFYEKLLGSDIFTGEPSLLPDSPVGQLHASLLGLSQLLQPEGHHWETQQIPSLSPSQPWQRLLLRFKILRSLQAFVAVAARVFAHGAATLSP
T1 sequence (looked up) 2: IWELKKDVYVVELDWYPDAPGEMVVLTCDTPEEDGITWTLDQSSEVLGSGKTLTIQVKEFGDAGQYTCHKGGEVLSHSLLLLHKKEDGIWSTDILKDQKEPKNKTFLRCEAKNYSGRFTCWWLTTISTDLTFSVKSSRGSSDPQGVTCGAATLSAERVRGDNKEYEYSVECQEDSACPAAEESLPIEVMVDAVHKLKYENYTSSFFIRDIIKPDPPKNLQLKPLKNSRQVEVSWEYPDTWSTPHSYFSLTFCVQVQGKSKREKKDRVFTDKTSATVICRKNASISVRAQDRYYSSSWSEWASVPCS

T2: Human IL-36R protein (His + Avi Tag), Kactus IL1-HM4L2 (human, UniProt Q9HB29 20-335)
T2 construct: Bought protein; also called human IL-36R antigen protein; Human IL-36R antigen
T2 sequence: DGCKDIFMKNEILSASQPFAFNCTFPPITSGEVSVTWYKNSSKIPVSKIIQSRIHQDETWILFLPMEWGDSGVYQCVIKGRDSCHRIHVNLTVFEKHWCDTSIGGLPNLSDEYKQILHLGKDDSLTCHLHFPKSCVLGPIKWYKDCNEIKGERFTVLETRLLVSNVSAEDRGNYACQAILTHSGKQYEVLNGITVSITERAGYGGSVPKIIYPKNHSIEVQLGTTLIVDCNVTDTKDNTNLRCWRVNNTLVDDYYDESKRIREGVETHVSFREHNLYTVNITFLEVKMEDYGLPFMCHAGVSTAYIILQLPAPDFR

T3: human IL-36R full-length protein stably expressed on CHO-K1 cells (human, UniProt Q9HB29 20-575)
T3 construct: FlpIn CHO-K1 line expressing the full-length protein; also called human IL-36R on the surface of CHO-K1 cells; CHO-K1 cells overexpressing human IL-36R
T3 sequence: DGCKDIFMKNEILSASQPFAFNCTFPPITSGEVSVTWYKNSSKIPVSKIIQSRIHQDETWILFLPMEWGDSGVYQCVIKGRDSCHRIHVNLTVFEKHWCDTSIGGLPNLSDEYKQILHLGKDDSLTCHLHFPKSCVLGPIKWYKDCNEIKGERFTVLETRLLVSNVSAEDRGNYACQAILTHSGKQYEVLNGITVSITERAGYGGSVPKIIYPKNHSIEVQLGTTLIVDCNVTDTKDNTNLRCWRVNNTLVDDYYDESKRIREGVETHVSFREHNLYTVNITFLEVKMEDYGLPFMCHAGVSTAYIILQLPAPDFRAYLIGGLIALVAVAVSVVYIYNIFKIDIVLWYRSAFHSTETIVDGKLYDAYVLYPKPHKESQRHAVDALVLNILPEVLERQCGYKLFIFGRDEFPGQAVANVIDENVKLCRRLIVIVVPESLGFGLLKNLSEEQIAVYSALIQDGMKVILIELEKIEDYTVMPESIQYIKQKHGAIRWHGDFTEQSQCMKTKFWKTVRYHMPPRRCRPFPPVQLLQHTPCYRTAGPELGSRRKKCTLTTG

T4: IL-36R on human skin squamous cell line A431 (human, UniProt Q9HB29 20-575)
T4 sequence (looked up): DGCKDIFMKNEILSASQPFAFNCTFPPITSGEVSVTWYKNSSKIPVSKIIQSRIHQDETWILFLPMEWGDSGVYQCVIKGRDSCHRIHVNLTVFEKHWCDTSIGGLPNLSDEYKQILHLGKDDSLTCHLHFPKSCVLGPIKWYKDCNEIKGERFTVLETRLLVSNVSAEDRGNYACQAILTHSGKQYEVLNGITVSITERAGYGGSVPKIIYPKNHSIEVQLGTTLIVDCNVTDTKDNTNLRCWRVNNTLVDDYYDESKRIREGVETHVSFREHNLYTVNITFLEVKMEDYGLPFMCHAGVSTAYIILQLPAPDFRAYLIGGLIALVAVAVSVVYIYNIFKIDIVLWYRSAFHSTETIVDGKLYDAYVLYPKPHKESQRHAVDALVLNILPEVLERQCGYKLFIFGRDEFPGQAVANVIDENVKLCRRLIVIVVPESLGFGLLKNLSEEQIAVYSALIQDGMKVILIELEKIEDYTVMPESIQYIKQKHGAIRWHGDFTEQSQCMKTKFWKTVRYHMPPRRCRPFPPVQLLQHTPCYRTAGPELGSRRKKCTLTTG

T5: Human IL-36R protein (His + Avi Tag, biotinylation), Kactus IL1-HM4L2B (human, UniProt Q9HB29 20-335, biotinylated)
T5 construct: Screening antigen of the phage panning; also called biotinylated human IL-36R; human IL-36R antigen (screening antigen)
T5 sequence: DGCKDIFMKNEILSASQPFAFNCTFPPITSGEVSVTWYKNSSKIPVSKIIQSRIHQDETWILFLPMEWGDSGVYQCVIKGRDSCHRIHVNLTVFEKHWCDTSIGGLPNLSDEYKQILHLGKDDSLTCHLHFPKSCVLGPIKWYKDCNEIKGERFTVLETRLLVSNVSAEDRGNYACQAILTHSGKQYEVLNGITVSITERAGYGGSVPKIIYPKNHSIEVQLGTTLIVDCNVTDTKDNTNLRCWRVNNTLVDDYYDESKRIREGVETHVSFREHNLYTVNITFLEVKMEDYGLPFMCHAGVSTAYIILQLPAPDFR


Experiments:
[1] = target: T1, human IL-23 protein (ACROBiosystems, …); assay: cell-based or functional assay
[2] = target: T1, human IL-23 protein (ACROBiosystems, …); assay: ELISA, human IL-23 coated
[3] = target: T1, human IL-23 protein (ACROBiosystems, …); assay: SPR (Biacore 8K), antibody captured by anti-human IgG Fc, IL-23 as analyte
[4] = target: T1, human IL-23 protein (ACROBiosystems, …); assay: cell-based or functional assay; remark: listed apart in the source
[5] = target: T2, Human IL-36R protein (His + Avi Tag), …; assay: SPR (Biacore 8K), antibody captured by anti-human IgG Fc, IL-36R as analyte
[6] = target: T3, human IL-36R full-length protein stably …; assay: FACS, CHO-K1 cells overexpressing human IL-36R
[7] = target: T4, IL-36R on human skin squamous cell line …; assay: cell-based or functional assay
[8] = target: T1, human IL-23 protein (ACROBiosystems, …); assay: cell-based or functional assay; remark: listed apart in the source
[9] = target: T5, Human IL-36R protein (His + Avi Tag, …); assay: phage panning on biotinylated human IL-36R, clone ELISA

Row | Binder | proliferation of BaF3-mIL-23R cells induced by IL-23, IC50 [1] [pM] | EC50 [2] [pM] | Kd [3] [pM] | koff [3] [s⁻¹] | kon [3] [M⁻¹ s⁻¹] | DB-STAT3-Luc2 reporter gene system IC50 [4] [pM] | Kd [5] [pM] | koff [5] [s⁻¹] | kon [5] [M⁻¹ s⁻¹] | EC50 [6] [pM] | Maximum MFI [6] [MFI] | IL-8 secretion (A431), IL-36α, IC50 [7] [pM] | IL-8 secretion (A431), IL-36β, IC50 [7] [pM] | IL-8 secretion (A431), IL-36γ, IC50 [7] [pM] | proliferation of BaF3-mIL-23R cells induced by IL-23, IC50 [8] [pM] | binding result [9]
1 | IL-36R-IL-23-01 (anti-IL-36R and anti-IL-23 bispecific antibody, VHH213_Hu07 on Hu29-19, Structure A) (bispecific antibody, human IgG1, kappa, L234A L235A, VHH fused by a (G4S)2 linker to the N-terminus of the heavy chain; IgG1 L234A/L235A) heavy: not shown light: DIVLTQSPDSLAVSLGERATINCRASESVDYYGISSMHWFQQKPGQPPKLLIYRASNLESGIPARFSGSGSRTDFTLTISSLQAEDVAVYYCQQANKDPYTFGGGTKVEIKRTVAAPSVFIFPPSDEQLKSGTASVVCLLNNFYPREAKVQWKVDNALQSGNSQESVTEQDSKDSTYSLSSTLTLSKADYEKHKVYACEVTHQGLSSPVTKSFNRGEC | 390 | 1210 | 23 | 5.97e-05 | 2.6e+06 | 7000 | 6470 | 0.000123 | 19100 | 1280 | 11600 | 540 | 200 | 60 | – | –
2 | IL-36R-IL-23-02 (anti-IL-36R and anti-IL-23 bispecific antibody, VHH162_Hu11 on Hu29-19, Structure A) (bispecific antibody, human IgG1, kappa, L234A L235A, VHH fused by a (G4S)2 linker to the N-terminus of the heavy chain; IgG1 L234A/L235A; also called IL-36R-1L-23-02) heavy: not shown light: DIVLTQSPDSLAVSLGERATINCRASESVDYYGISSMHWFQQKPGQPPKLLIYRASNLESGIPARFSGSGSRTDFTLTISSLQAEDVAVYYCQQANKDPYTFGGGTKVEIKRTVAAPSVFIFPPSDEQLKSGTASVVCLLNNFYPREAKVQWKVDNALQSGNSQESVTEQDSKDSTYSLSSTLTLSKADYEKHKVYACEVTHQGLSSPVTKSFNRGEC | – | 490 | 23.5 | 6.83e-05 | 2.9e+06 | 8800 | 15900 | 0.000146 | 9210 | 1130 | 11400 | 1630 | 740 | 210 | 500 | –
3 | VHH162 (camelid nanobody clone from the phage library) (VHH, As identified by panning and clone ELISA (phage or clone format not described)) VHH: DVQLVESGGGSVQPGGSLRLSCAASGYSYRTQCLGWYRQAPGKQREAVATISGGGTSTYYSDSVKGRFTISQDNARTTVYLSLTSLKPEDTATYYCAAGLSVLGSWCHGGSSYEYTYSGQGTQVTVSS | – | – | – | – | – | – | – | – | – | – | – | – | – | – | – | binds
